In patent US12516294B2, “Method for producing mesenchymal stem cells from living body-derived cell sample containing mesenchymal stem cells” (AJINOMOTO CO., INC., priority 2019, dated 2026):
Entries after “also recorded” stand apart in the source; their conditions may differ.

Legend:
Format in all cases: cell-based
[1] = tested on: MNC; experiment: MSC production by the kind of TGFβ receptor inhibitor (Example 4); conditions: 10 μM SB431542, 0.5 μM A-83-01 or 0.5 μM LDN-193189 in medium for seeding; Vitronectin (20-398 aa) coating; day 12 (FIG. 7)
Description: MNC (Lonza) was thawed using the following medium for seeding (1), (2) or (3). The above-mentioned cells were seeded at a concentration of 2.6×10^6 cells/well in a 24-well plate coated with Vitronectin (20-398 aa) (wako) at a concentration of 1.5 μg/cm^2, and cultured under the conditions of 37° C., 5% CO2. The next day of seeding, the entire amount of the medium in the plate was replaced with a medium for seeding (1), (2) or (3), and the medium for seeding (1), (2) or (3) in an amount corresponding to 20% of the amount of the medium in the plate was further added on day 3 and day 5 after seeding. Medium for seeding (1): StemFit (registered trade mark) AKO3N medium (Ajinomoto Co., Inc.) SOLUTION A, ¼ StemFit (registered trade mark) AKO3N medium (Ajinomoto Co., Inc.) SOLUTION B, 3 ng/mL bFGF (peprotech), 10 μM SB431542 (Stemgent), 1/100 Lipid Concentrate (Life Technologies), 10 nM Dexamethasone (Sigma-Aldrich), 10 ng/mL PDGF-BB (FUJIFILM Wako Pure Chemical Industries, Ltd.), 1 mM Lithium Chloride (Sigma-Aldrich)
(§1) Medium for seeding (2): StemFit (registered trade mark) AKO3N medium (Ajinomoto Co., Inc.) SOLUTION A, ¼ StemFit (registered trade mark) AKO3N medium (Ajinomoto Co., Inc.) SOLUTION B, 3 ng/mL bFGF (peprotech), 0.5 μM A-83-01 (wako), 1/100 Lipid Concentrate (Life Technologies), 10 nM Dexamethasone (Sigma-Aldrich), 10 ng/mL PDGF-BB (FUJIFILM Wako Pure Chemical Industries, Ltd.), 1 mM Lithium Chloride (Sigma-Aldrich)
as §1, with “for seeding (3): StemFit (registered” for “for seeding (2): StemFit (registered”, “0.5 μM LDN-193189 (Stemgent), 1/100 Lipid” for “0.5 μM A-83-01 (wako), 1/100 Lipid”, “Chloride (Sigma-Aldrich) […]” for “Chloride (Sigma-Aldrich)”
After confirming that the cells became sub-confluent, the cells were passaged on day 12 after seeding, and the number of cells was measured.

[2] = tested on: bone marrow mononuclear cells (MNC); experiment: Formation of MSC cell aggregates from MNC seeded on coated plates in serum-free medium (Example 1); conditions: plate coated at 1.5 μg/cm^2 at MNC seeding, day 5 after seeding, compared with Fibronectin coating
Description: (§2) Due to the limitations of purification techniques, bone marrow mononuclear cells (MNC) separated from bone marrow are slightly contained with mesenchymal stem cells (MSC). In this Example, a method for producing MSC from MNC by using a serum-free medium is verified. Bone marrow mononuclear cells (MNC) (Lonza) were thawed using the following medium for seeding. The above-mentioned cells were seeded at a concentration of 2.6×10^6 cells/well in a 24-well plate coated with Fibronectin (Sigma) or Vitronectin (wako) each at a concentration of 1.5 μg/cm^2, and cultured under the conditions of 37° C., 5% CO2. The next day of seeding, the entire amount of the medium in the plate was replaced with a medium for seeding, and the medium for seeding in an amount corresponding to 20% of the amount of the medium in the plate was further added on day 3 and day 5 after seeding. Medium for seeding: StemFit (registered trade mark) AKO3N medium (Ajinomoto Co., Inc.) SOLUTION A, StemFit (registered trade mark) AKO3N medium (Ajinomoto Co., Inc.) SOLUTION B, 3 ng/mL bFGF (peprotech), 10 μM 5B431542 (Stemgent), 1/100 Lipid Concentrate (Life Technologies), 10 nM Dexamethasone (Sigma-Aldrich), 10 ng/mL PDGF-BB (FUJIFILM Wako Pure Chemical Industries, Ltd.), 1 mM Lithium Chloride (Sigma-Aldrich)

[3] = tested on: bone marrow mononuclear cells (MNC); experiment: Number of cells after re-seeding of dissociated aggregates (Example 1); conditions: coating at MNC seeding 1.5 μg/cm^2, aggregates re-seeded day 7, counted day 13, compared with Fibronectin coating
Description: as §2, with “Medium for seeding: StemFit (registered trade mark) AKO3N medium (Ajinomoto Co., Inc.) SOLUTION A, StemFit (registered trade mark) AKO3N medium (Ajinomoto Co., Inc.) SOLUTION B, 3 ng/mL bFGF (peprotech), 10 μM 5B431542 (Stemgent), 1/100 Lipid Concentrate (Life Technologies), 10 nM Dexamethasone (Sigma-Aldrich), 10 ng/mL PDGF-BB (FUJIFILM Wako Pure Chemical Industries, Ltd.), 1 mM Lithium Chloride (Sigma-Aldrich)” left out
After confirming that the cells became sub-confluent, the cells were passaged on day 13 after seeding, and the number of cells was measured.

[4] = tested on: MNC; experiment: MSC production from MNC by the kind of Vitronectin (Example 2); conditions: coating 1.5 μg/cm^2, 2.6×10^6 cells/well, 13 days after MNC seeding (FIG. 4)
Description: MNC (Lonza) was thawed using the following medium for seeding (serum-free). The above-mentioned cells were seeded at a concentration of 2.6×10^6 cells/well in 24-well plates coated with Vitronectin (20-398 aa) (wako) (corresponding to amino acid Nos. 1-379 of SEQ ID NO: 1), Vitronectin (VTN-N, 62-478 aa) (Life Technologies) (corresponding to amino acid Nos. 43-459 of SEQ ID NO: 1) or Vitronectin (Full length, 20-478 aa) (Sigma) (corresponding to SEQ ID NO: 1) at a concentration of 1.5 μg/cm^2, and cultured under the conditions of 37° C., 5% CO2. In addition, the cells were seeded at a concentration of 1.6×10^6 cells/well in a 24-well plate coated with Vitronectin (20-398 aa) (wako) or Synthemax II (CORNING) at concentrations of 1.5 μg/cm^2 and 5.0 μg/cm^2, respectively, and cultured under the conditions of 37° C., 5% CO2. Synthemax II is a vitronectin-based synthetic peptide containing RGD motif and flanking sequence. The next day of seeding, the entire amount of the medium in the plate was replaced with a medium for seeding, and the medium for seeding in an amount corresponding to 20% of the amount of the medium in the plate was further added on day 3 and day 5 after seeding. […]
After confirming that the cells became sub-confluent, the cells were passaged on days 12 and 13 after seeding, and the number of cells was measured.

NC(=O)c1ccc(-c2nc(-c3ccc4c(c3)OCO4)c(-c3ccccn3)[nH]2)cc1 [SB431542]
MSC production from MNC (number of MSC) [1]: MSC could be efficiently produced from MNC

Cc1cccc(-c2nn(C(=S)Nc3ccccc3)cc2-c2ccnc3ccccc23)n1 [A-83-01]
MSC production from MNC (number of MSC) [1]: MSC could be efficiently produced from MNC

c1ccc2c(-c3cnn4cc(-c5ccc(N6CCNCC6)cc5)cnc34)ccnc2c1 [LDN-193189]
MSC production from MNC (number of MSC) [1]: MSC could be efficiently produced from MNC

B1: Vitronectin: Vitronectin (wako) used to coat 24-well plates at 1.5 μg/cm^2 in Example 1 (protein, UniProt P04004 20-478, looked up)
Vitronectin: DQESCKGRCTEGFNVDKKCQCDELCSYYQSCCTDYTAECKPQVTRGDVFTMPEDEYTVYDDGEEKNNATVHEQVGGPSLTSDLQAQSKGNPEQTPVLKPEEEAPAPEVGASKPEGIDSRPETLHPGRPQPPAEEELCSGKPFDAFTDLKNGSLFAFRGQYCYELDEKAVRPGYPKLIRDVWGIEGPIDAAFTRINCQGKTYLFKGSQYWRFEDGVLDPDYPRNISDGFDGIPDNVDAALALPAHSYSGRERVYFFKGKQYWEYQFQHQPSQEECEGSSLSAVFEHFAMMQRDSWEDIFELLFWGRTSAGTRQPQFISRDWHGVPGQVDAAMAGRIYISGMAPRPSLAKKQRFRHRNRKGYRSQRGHSRGRNQNSRRPSRATWLSLFSSEESNLGANNYDDYRMDWLVPATCEPIQSVFFFSGDKYYRVNLRTRRVDTVDPPYPRSIAQYWLGCPAPGHL
number of cell aggregates obtained [2]: More cell aggregates were formed; also recorded: larger
number of cells obtained by the subsequent re-seeding [3]: larger
number of cells obtained by the subsequent re-seeding ([3]; listed as vitronectin): remarkably higher

B2: Vitronectin (20-398 aa) (wako): commercially available partial peptide of vitronectin, corresponding to amino acid Nos. 1-379 of SEQ ID NO: 1 (protein, listed as Homo sapiens)
chain: DQESCKGRCTEGFNVDKKCQCDELCSYYQSCCTDYTAECKPQVTRGDVFTMPEDEYTVYDDGEEKNNATVHEQVGGPSLTSDLQAQSKGNPEQTPVLKPEEEAPAPEVGASKPEGIDSRPETLHPGRPQPPAEEELCSGKPFDAFTDLKNGSLFAFRGQYCYELDEKAVRPGYPKLIRDVWGIEGPIDAAFTRINCQGKTYLFKGSQYWRFEDGVLDPDYPRNISDGFDGIPDNVDAALALPAHSYSGRERVYFFKGKQYWEYQFQHQPSQEECEGSSLSAVFEHFAMMQRDSWEDIFELLFWGRTSAGTRQPQFISRDWHGVPGQVDAAMAGRIYISGMAPRPSLAKKQRFRHRNRKGYRSQRGHSRGRNQNSRRPSR
MSC production from MNC (number of MSC) [4]: could produce MSC most efficiently from MNC
